Reference: the supplement of paper PMC10126150
± gives the standard deviation of the averaged measurements.

System: ATP
Assay: switch fluorescence ratio, 500 uM ATP over buffer (Cy3 cluster intensity, sum of 5 cycles each) (fold (ratio)); higher = stronger signal-on switching upon ATP binding; sequences stand for … in TCGTCGGCAGCGTCAGATGTGTATAAGAGACAGTTTTTTTTTTTTTTTTTTTTTTTTT…TC
Conditions: aptamer strand: ATP DNA aptamer (quencher-CACCTGGGGGAGTATTGCGGAGGAAGG + anchor), 100 nM annealed; ATP concentration: 500 uM
Method in brief: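 Exposure to 500 uM ATP lasted 15 min at 22 °C before imaging, and a selection-buffer image was taken beforehand, for Cy3-labelled switching-strand clusters on a modified Illumina MiSeq flow-cell annealed to 100 nM quencher-labelled ATP aptamer. Five buffer/ATP cycles were run with NaOH stripping and re-annealing between them. The fluorescence ratio per cluster is summed target-cycle over summed buffer-cycle Cy3 intensity, averaged per switch-domain sequence. Clusters outside 100-1000 RFU were excluded.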

Sequence	switch fluorescence ratio
TAGCTCGGGG	1.03 ± 0.035
TAGCTGAGGG	0.997 ± 0.015
TAGCTGAGTG	0.985 ± 0.043
TAGCTTATAA	1.08 ± 0.024
TAGCTTGGCA	0.991 ± 0.048
TAGCTTGGTG	1.04 ± 0.015
TAGCTTGTCA	0.9884 ± 0.0065
TAGCTTGTTT	1.02 ± 0.022
TAGCTTTGGG	1 ± 0.011
TAGGAAGGAG	0.98 ± 0.06
TAGGAAGGCG	1.01 ± 0.047
TAGGAATGTT	0.9659 ± 0.0022
TAGGACGTGG	0.988 ± 0.061
TAGGACTCGG	0.989 ± 0.024
TAGGAGGAGT	0.951 ± 0.017
TAGGAGGGAG	1.02 ± 0.031
TAGGAGGGGC	0.958 ± 0.12
TAGGAGTAAT	1.012 ± 0.0047
TAGGAGTGAA	0.9792 ± 0.0021
TAGGATACGG	0.995 ± 0.012
TAGGATGTGT	1 ± 0.0056
TAGGATTGCT	1 ± 0.021
TAGGATTTTG	0.985 ± 0.033
TAGGCAGAGT	1.01 ± 0.023
TAGGCATCGT	0.969 ± 0.019

Sequence	switch fluorescence ratio
TAGGCGGTGT	1.01 ± 0.012
TAGGCGTGCT	0.987 ± 0.013
TAGGCTGCGA	1.04 ± 0.025
TAGGCTTAGG	1.029 ± 0.0019
TAGGGAAAAG	0.99 ± 0.013
TAGGGAAATA	1 ± 0.051
TAGGGACGGG	1.07 ± 0.087
TAGGGAGAAA	1.46 ± 0.64
TAGGGAGGCG	0.962 ± 0.063
TAGGGCACA	1.1 ± 0.057
TAGGGCCGTG	0.977 ± 0.0059
TAGGGCGCGG	0.9403 ± 0.0034
TAGGGCGGGA	0.946 ± 0.052
TAGGGCTGGC	1 ± 0.08
TAGGGCTGTA	0.993 ± 0.049
TAGGGGAATC	0.992 ± 0.02
TAGGGGAATG	1.02 ± 0.098
TAGGGGAATT	0.967 ± 0.039
TAGGGGAGC	1.01 ± 0.045
TAGGGGAGCA	1.01 ± 0.044
TAGGGGATAT	0.964 ± 0.025
TAGGGGCAGG	1.07 ± 0.022
TAGGGGCCGT	1.02 ± 0.05
TAGGGGCCTA	0.995 ± 0.011
TAGGGGCGTG	0.998 ± 0.039

Sequence	switch fluorescence ratio
TAGGGGGAAT	1.01 ± 0.054
TAGGGGGATG	0.997 ± 0.028
TAGGGGGCAT	1.01 ± 0.043
TAGGGGGCGG	0.988 ± 0.03
TAGGGGGCTC	0.959 ± 0.02
TAGGGGGGAA	1 ± 0.023
TAGGGGGGCC	0.9669 ± 0.0015
TAGGGGGGGA	1.01 ± 0.018
TAGGGGGGGT	1 ± 0.031
TAGGGGGT	0.985 ± 0.027
TAGGGGGTAA	0.997 ± 0.039
TAGGGGGTCG	0.971 ± 0.042
TAGGGGGTTC	1.01 ± 0.027
TAGGGGTAGG	1.02 ± 0.021
TAGGGGTTAG	0.9808 ± 0.0098
TAGGGGTTCT	1.01 ± 0.061
TAGGGGTTGG	0.987 ± 0.03
TAGGGGTTTG	0.979 ± 0.027
TAGGGTAAAT	0.985 ± 0.012
TAGGGTAGTT	1.02 ± 0.071
TAGGGTCATT	0.999 ± 0.029
TAGGGTCTCT	0.989 ± 0.012
TAGGGTGCTA	1 ± 0.019
TAGGGTGTCA	1.03 ± 0.047
TAGGTAAATT	1.02 ± 0.054

Sequence	switch fluorescence ratio
TAGGTACTGG	1.04 ± 0.014
TAGGTAGGTT	1.015 ± 0.0086
TAGGTAGTCT	1.02 ± 0.015
TAGGTATGGC	0.976 ± 0.012
TAGGTATGGG	0.9955 ± 0.002
TAGGTCCCGG	0.996 ± 0.032
TAGGTCGGCC	1.004 ± 0.0061
TAGGTCGGGT	0.984 ± 0.035
TAGGTCTAGT	0.98706 ± 0.0005
TAGGTGCAGG	1.08 ± 0.068
TAGGTGGACT	1.01 ± 0.042
TAGGTGGGCA	0.987 ± 0.054
TAGGTGGGCT	1.011 ± 0.0064
TAGGTTCTAA	1.06 ± 0.079
TAGGTTGCAA	0.9665 ± 0.007
TAGGTTGGTG	1 ± 0.036
TAGGTTTGCC	1.08 ± 0.021
TAGGTTTTGT	1 ± 0.044
TAGTAATTTG	1.01 ± 0.019
TAGTAGAGGT	1 ± 0.043
TAGTAGGGGT	1.002 ± 0.0061
TAGTAGGTAG	0.985 ± 0.025
TAGTAGGTTG	0.979 ± 0.04
TAGTATGGGG	0.976 ± 0.045
TAGTATGTTT	1.004 ± 0.0061

Sequence	switch fluorescence ratio
TAGTATTTTT	0.977 ± 0.023
TAGTCTAGTG	0.9812 ± 0.0066
TAGTCTTAGG	0.973 ± 0.049
TAGTGAAGGC	0.988 ± 0.013
TAGTGAAGTC	1.02 ± 0.073
TAGTGATCTT	0.997 ± 0.0066
TAGTGCACGG	0.995 ± 0.039
TAGTGGCAGC	0.9797 ± 0.0053
TAGTGGCTGG	1 ± 0.026
TAGTGGGATT	0.994 ± 0.016
TAGTGGTGGG	0.9844 ± 0.0089
TAGTGTATTG	1.01 ± 0.012
TAGTTAAATC	1 ± 0.042
TAGTTAATCA	0.991 ± 0.01
TAGTTAATTG	0.987 ± 0.067
TAGTTACGGT	1.05 ± 0.064
TAGTTACTTT	1.02 ± 0.021
TAGTTAGACG	1.11 ± 0.1
TAGTTATCGA	0.997 ± 0.0069
TAGTTCGGTT	1.01 ± 0.016
TAGTTCTGGG	0.9428 ± 0.0012
TAGTTGAAGG	0.9942 ± 0.0051
TAGTTGACAA	0.99 ± 0.0024
TAGTTGACCC	1.01 ± 0.053
TAGTTGCTCA	0.993 ± 0.046

Sequence	switch fluorescence ratio
TAGTTGGGAT	0.991 ± 0.029
TAGTTGGGCA	0.987 ± 0.026
TAGTTGTCCG	1.02 ± 0.12
TAGTTGTGGT	0.99 ± 0.034
TAGTTGTTTA	0.985 ± 0.046
TAGTTTTCAG	1.02 ± 0.047
TAGTTTTGAA	0.997 ± 0.072
TAGTTTTGGA	0.988 ± 0.01
TAGTTTTTAG	0.981 ± 0.018
TAGTTTTTCC	1.03 ± 0.037
TATAAAGAGG	0.987 ± 0.038
TATAAAGGGT	1.02 ± 0.055
TATAAAGTTT	1.01 ± 0.0081
TATAAATGGG	1 ± 0.0042
TATAACATGT	0.997 ± 0.026
TATAACGCTT	1.01 ± 0.017
TATAACTTGA	1.02 ± 0.0048
TATAAGAGCG	1.004 ± 0.0065
TATAAGGATG	0.993 ± 0.019
TATAAGTCAC	1.146 ± 0.011
TATAATAGTT	0.965 ± 0.037
TATAATCGA	1.03 ± 0.067
TATAATGCGC	0.995 ± 0.034
TATAATGGCG	0.961 ± 0.04
TATAATTGCC	0.991 ± 0.0076

Sequence	switch fluorescence ratio
TATAATTTCT	1.04 ± 0.018
TATACATCTG	1.0055 ± 0.00054
TATACGAAGA	1.08 ± 0.045
TATACGGGAT	1.06 ± 0.043
TATACGGGGA	1.01 ± 0.021
TATACGGTTA	1.06 ± 0.022
TATACTAGTT	1.04 ± 0.033
TATACTCCTG	1.16 ± 0.041
TATACTTAGT	1.025 ± 0.0036
TATAGAAAAT	1.03 ± 0.026
TATAGAAGCG	1.01 ± 0.021
TATAGAAGT	1.002 ± 0.0015
TATAGAGTAA	1.02 ± 0.034
TATAGAGTTT	1.01 ± 0.023
TATAGCCTAG	0.99 ± 0.027
TATAGGATGG	0.98 ± 0.028
TATAGGCAGG	0.9772 ± 0.008
TATAGGCCTC	1.001 ± 0.0064
TATAGGGTTT	1.07 ± 0.12
TATAGGTTGG	1.02 ± 0.031
TATAGTCTTT	0.983 ± 0.015
TATATAGGGG	1 ± 0.026
TATATATGAA	1.01 ± 0.015
TATATCTATA	1.02 ± 0.015
TATATGCCTT	1.01 ± 0.036

Sequence	switch fluorescence ratio
TATATGCGTG	0.9932 ± 0.0039
TATATTACAG	1.05 ± 0.028
TATATTATGA	0.999 ± 0.023
TATATTTTTC	1.15 ± 0.24
TATCAAAGGG	1.023 ± 0.0067
TATCAAAGGT	1.01 ± 0.025
TATCACACTG	1.09 ± 0.12
TATCACGGCG	0.998 ± 0.013
TATCACGGCT	0.969 ± 0.0099
TATCACTGTT	1.05 ± 0.079
TATCAGAAGC	1.012 ± 0.01
TATCAGAGGT	1.03 ± 0.036
TATCAGATTA	0.998 ± 0.033
TATCAGCTGA	0.9974 ± 0.0036
TATCAGGGG	1.11 ± 0.054
TATCAGTAGT	1.016 ± 0.0028
TATCAGTGAT	1.02 ± 0.071
TATCATAGCG	1.01 ± 0.046
TATCATGGGG	0.996 ± 0.031
TATCCCCCGG	1.95 ± 1.2
TATCCGAACG	1.4467 ± 0.00019
TATCCGGGTG	3.23 ± 0.25
TATCCTGGCG	1.03 ± 0.057
TATCGAAGGC	0.982 ± 0.022
TATCGCTGGT	1.04 ± 0.023
